This note sets out measurements from a protein production outcome set (Wang et al. 2014).

A short description of the data set: label from the status in PepcDB records.
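Further: failed if final PepcDB status was selected cloned or expressed and not failed if soluble or beyond.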

In the case of “MTELEDPSRDRLKHHFAQRVIHQARQILETWQRLQKAQWSVADMAELKEATLRLMRFAERFEQAEHVALAHEINQSLDAVDANRGRLNSHVITELNRLMQRLSRTGLRHGDRLEQTSLPPLRKPVYVVLQDHERAERLAKQLEFFGLSALSLHSVADFQRAMAQRHPAAIVMDVDFSGPGMGLELASQAQEGLEQKLPLLFFSVHETDTPTRLAAVRAGGEEFLTGALEASSLLEKIEVLTCVAQYEPYKVLIIDDSRAQAMHTERVLNAAGIVTRVLIDPIQAMSELADFQPDLIILDMYMPGCTGTELAKVIRHNDRYVSVPIIYLSAEDDQDKQLDAMSEGGDDFLTKPIKPRHLITTVRNRAARARNLKSRMVRDSLTGLYNHTHILQLLEDCSFRSRREGKPLCFAMLDIDHFKRVNDSHGHPMGDRVIKSLALFLKQRLRKTDFIGRYGGEEFAIVMPDTDIHNAHKVLDEIRHRFAEIHYPAQPADLFCTFSAGVVCLGADDDSLSLASQADNALYRAKHAGRNQVHSALVQAPYHIVLAEIEA”, the protein production entry was “failed”.
On to “MTELGTVLDGKYEILKKVGQGGMSIVYLAMDNRLNKQWAVKEIKNDGSKSTATLLKSLEREANILKDVDHPVLPRIVDIINENGTIYVVMDFVEGKPLSDVLKAEGAQDQNKVIEWGRALASALDYLHSMNPPIIYRDMKPSNVMLKPDGSVKLIDFGTAKEYIVENNADTTALGTRGYAAPEQFGDSQGRGIYNTDARTDIYNLGATLYHLVTGKNPCEPPYEIKPIRQWNPTLSSGFEQIIIKCCQPSPEDRYQSCSELLYALDHYNELDNEFKAKAKRKVAVFATMAGLSILSGCCAIFGGVKKGQLKEQDYNNKIAEAEDAVDSSDYNKAFECYKAAVDIDPTASEAYIGYMDTYAYYYTDEDVATGTGTETPAEKGIKFALRNIDKVKDDVKYEIALLYFNEVPDYSAARKYFNMVGDTENFANDVKQAKYYEAICDNKINKTADFNDSKQEVFDFQQYNSDNIDDTNTYKYVNYLNIATIYVDKLSSDEELANRTIELLQEASDKLNDNATVLSKEFPEERGVNYYSGQYSAILCSVYTYLAEKESDPVEQVAYYREAINSIDSYLSGLDMNGDAVTEKTKNVYAEYSRKKAEIYVSMGDISGDDKNYELAENVYLSAEQMLGVDDYSADLYTSHLTYLYNRYTDLYGSAPDTWDKSARNTVISVYNSGSRISMLADGKKPQWNTLIHKPVIEAIVSGTGSKTGK”, for which the protein production result is “failed”.
In the case of “MTELRPGGPMYGPTPPLPLPTDRLQFAMPPMYESLDDERTHRKERLAGALRLFGRLGFEDGVSGHITARDPEYSDCFWVNPFGMPFKHVTVSDLVMVNASGQVIEGRYHVNQAAFTVHAQVHAARPDVVAVAHCHSVHGRALSALGDLLDPITQESCAFYEDHALYDAYTGVAVDAEEGRRIASALDTRKALVLRNHGLLTVGDSVDAAAWWFVSMERSCQVQLTARAAGRPVLIDHKQAVATREQLGGDLVAWINYQPLWQDISRSEPDLLS” it was “failed”; in that of “MTEMQSLRHRLIRQPGPVSGECWIAFFDGVAHPVLIKNAQGQVIFANRAACDLLGRDRSGLAGGAEHELVAGTQAEQIASFDAEAMRRGSVSAEQEMPGPRGVRRFLVSRRPAGEHLVVTFFEITDLRETEGVLRQREAHLRNLLELHPVAPFSFTADGVLSDLSDRLVAITGLPAGTRHVDAWWAAMHPCDRRDLRRAWIRSVRGGQSFDAEHRLQMPDGAYRWFRARIVARPRDQDQRVDRWFGIIEDVHERRTTVEQLRESEARFRAFADDAPVMIWVTDTEGRNVFVSRSWLGATGQSLDEALGTGWIDAVHPDDRDATAAITREAMRRRIAYTNEFRIRRKDGGWCWVIDVGHPRLLADGTFIGYIGCCVDISARRQAEDDRVMAQLQVFHMARHDMLTGLPNRHYFGDCYQEAVASLAPERSVAVLMLDLDGFKTVNDTRGHPVGDQVLCEVANRLRTSVRSTDTVARLGGDEFAVIQTPIRSEQEACDLARRLIAAISKPFDLEGAVPEVGASVGIAFARGHGDSAEEIMRYADVALYAAKQAGRGTFRVFDEATDTHLQSRQKMKAALRAALGLGELSVFYQPLIGLRDGQVTACEALMRWHRKGAGWITPDQFIPLAEEAGLIGDMGDWVLHEACAQAARWPDSVSVAVNLSPLQFHGGALVDQVASALRASGLPPERLQLEITESVLLDPTDRNIGVLQDLRALGAKIVMDDFGTGYSSLGYLRSFPFDKIKVDRSFIRDLPDAREALAILKAVAGLGRSLDMRTTVEGVETQAQLDCAIAEGVDEAQGYFFSRPLPAPGIASFISGCLPKRRIQPATGDAAT”, “failed”; in that of “MTENELLTRCGGKCELCGSDVELAIYDLPASDGHENEIMICENCSSQIAAPDTMDMNHWRCLNDSMWSQVPAVQVMSYRMLKRLSGESWAQDLLDMLYLEDDLRAWGDAEAAAASDDTPPTLDSNGAVLNAGDTVVIIKDLNVKGTSFVAKRGTAVRNIALTNNPEHIEGRVNGTRIVILTCFVKKSLEHHHHHH”, “not failed”.
